Measured values reported in EP4567818A1 (Nanjing GenScript Biotech Co., Ltd., dated 2025).

Assays:
[1] = target: T1, TNFRSF9 protein (also referred to as CD137 protein) (Homo sapiens (Human), UniProt Q07011 24-186); assay: indirect ELISA, purified antibody on coated recombinant TNFRSF9 (0.5 ug/ml)
T1 construct: also called recombinant TNFRSF9 protein

[2] = target: T1, TNFRSF9 protein (also referred to as …); assay: ELISA on coated TNFRSF9, CHO-S expression supernatant diluted 100-fold

B1: rabbit monoclonal antibody 4C2-WTH before humanization (antibody, human IgG1, V domains shown)
VH: QSVEESGGRLVTPGTPLTLTCTVSGFSLGTFPIGWVRQAPGSGLEWIGIFNTDGSAAYASWARGRFTVFKNSTTVDLKMTSPTTEDTATYFCARINADYSGWYFGIWGPGTLVTVSS
VL: EMTQTPASVEVAVGGTVTIKCQASQSIYSYLAWYQQKPGQPPKPLIYEASKTPSGVPSRFKGSGSGTEYTLTISGVQCEDAATYYCQKGYSVSNVAFGGGTEVVVKR
notes: As tested it is a chimera: the original rabbit variable regions with the human IgG1 constant region, expressed from pcDNA3.4 in CHO-S cells; also called wild-type antibody; anti-CD137 rabbit antibody
EC50 [1]: 3.8 ng/mL | OD450 (100-fold dilution) [2]: 3.33 OD450
